Measurements taken from patent publication US20250304677A1 (VIB VZW, published 2025).

What was measured:
[1] = target: T1, mouse folate receptor alpha (mFRα), recombinant protein (mouse, UniProt P35846 25-232); assay: BLI off-rate screening, crude periplasmic extract, biotinylated mouse FRα on streptavidin biosensors
T1 construct: Bought recombinant proteins (e.g. biotinylated, Acro Biosystems FO1-M82E9); also called mFOLR1; Ms FOLR1
Procedure: (§1) Non-redundant clones were tested as crude periplasmatic extracts for binding analysis to human FRα and mouse FRα proteins captured on streptavidin biosensors in BLI. Variants P0150001 and P0150005 grown in the same 96-well plates were included as controls.

[2] = target: T2, human folate receptor alpha (hFRα), recombinant protein (human, UniProt P15328 25-233); assay: BLI off-rate screening, crude periplasmic extract, biotinylated human FRα on streptavidin biosensors
T2 construct: Bought recombinant proteins (His-tagged, or biotinylated via Avi-tag, e.g. AcroBiosystems FO1-H82E2, F01-H52H1); also called hFOLR1; huFOLR1
T2 sequence (P15328 25-233 limits assumed): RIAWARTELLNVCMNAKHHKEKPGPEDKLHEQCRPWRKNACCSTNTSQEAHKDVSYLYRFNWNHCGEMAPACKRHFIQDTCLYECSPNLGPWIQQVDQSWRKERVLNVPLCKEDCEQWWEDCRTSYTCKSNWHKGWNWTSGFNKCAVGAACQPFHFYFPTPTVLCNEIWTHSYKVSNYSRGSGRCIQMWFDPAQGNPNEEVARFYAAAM
Procedure: as §1

[3] = target: T2, human folate receptor alpha (hFRα), …; assay: BLI off-rate analysis
[4] = target: T1, mouse folate receptor alpha (mFRα), …; assay: BLI off-rate analysis
[5] = target: T2, human folate receptor alpha (hFRα), …; assay: BLI, Avi-biotinylated FRα on streptavidin biosensors, VHH 100 nM
Procedure: (§2) The binding of humanized variants of 2HFO42 was assessed by kinetic binding analysis to mouse and human FRα protein, biotinylated via an Avi-tag, captured on streptavidin biosensors by biolayer interferometry ^{∘}BLI), essentially as described earlier. VHHs were analysed at 100 nM concentration, and off-rates were determined using fitting of 1:1 langmurian interaction. Dissociation constants were compared to 2HFO42^{∘}Q1E, Q5V, Q108L) ^{∘}P101500004) and 2MFR67 ^{∘}Q1E, Q5V, Q108L) ^{∘}P0150000), respectively.

[6] = target: T1, mouse folate receptor alpha (mFRα), …; assay: as above
Procedure: as §2

T1 sequence (P35846 25-232 limits assumed): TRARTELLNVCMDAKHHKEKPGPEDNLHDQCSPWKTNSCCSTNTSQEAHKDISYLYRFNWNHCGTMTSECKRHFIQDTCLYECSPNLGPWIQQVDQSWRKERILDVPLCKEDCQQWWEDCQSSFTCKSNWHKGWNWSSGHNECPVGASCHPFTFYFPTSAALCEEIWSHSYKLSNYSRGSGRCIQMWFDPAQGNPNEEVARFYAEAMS

binding result [1]	binding result [2]	koff [3] [s⁻¹]	koff [4] [s⁻¹]	Binder	further results
binds	binds			[D72E] (VHH, library clone tested as crude periplasmic extract; also called P01500001[D72E]) VHH: EVQLVESGGGLVQPGGSLRLSCAASGSGFSGMIMGWYRQAPGKQRELVATVTSHGTTNYADSVKGRFTISRENAKNTVYLQMNSLRPEDTAVYYCNAHFPGIYWGKGTLVTVSS	
		0.0101	0.00224	P01500079: P01500001[E1D]Flag3-His6-GS-NT (VHH, Entry includes tags, linker and NT(8-13); also called humanised 2HFO42, P01500079) VHH: DVQLVESGGGLVQPGGSLRLSCAASGSGFSGMIMGWYRQAPGKQRELVATVTSHGTTNYADSVKGRFTISRDNAKNTVYLQMNSLRPEDTAVYYCNAHFPGIYWGKGTLVTVSS	
binds	binds			[I33F] (VHH, library clone tested as crude periplasmic extract; also called P01500001[I33F]) VHH: EVQLVESGGGLVQPGGSLRLSCAASGSGFSGMFMGWYRQAPGKQRELVATVTSHGTTNYADSVKGRFTISRDNAKNTVYLQMNSLRPEDTAVYYCNAHFPGIYWGKGTLVTVSS	
binds	binds			[G28T] (VHH, library clone tested as crude periplasmic extract; also called P01500001[G28T]) VHH: EVQLVESGGGLVQPGGSLRLSCAASGSTFSGMIMGWYRQAPGKQRELVATVTSHGTTNYADSVKGRFTISRDNAKNTVYLQMNSLRPEDTAVYYCNAHFPGIYWGKGTLVTVSS	
binds	binds			[I33L] (VHH, library clone tested as crude periplasmic extract; also called P01500001[I33L]) VHH: EVQLVESGGGLVQPGGSLRLSCAASGSGFSGMLMGWYRQAPGKQRELVATVTSHGTTNYADSVKGRFTISRDNAKNTVYLQMNSLRPEDTAVYYCNAHFPGIYWGKGTLVTVSS	
		0.00346	0.000497	P01500073: P01500001[E1D, G28T, S30I]Flag3-His6-GS-NT (VHH, Entry includes tags, linker and NT(8-13)) VHH: DVQLVESGGGLVQPGGSLRLSCAASGSTFIGMIMGWYRQAPGKQRELVATVTSHGTTNYADSVKGRFTISRDNAKNTVYLQMNSLRPEDTAVYYCNAHFPGIYWGKGTLVTVSS	
binds	binds			[G28P] (VHH, library clone tested as crude periplasmic extract; also called P01500001[G28P]) VHH: EVQLVESGGGLVQPGGSLRLSCAASGSPFSGMIMGWYRQAPGKQRELVATVTSHGTTNYADSVKGRFTISRDNAKNTVYLQMNSLRPEDTAVYYCNAHFPGIYWGKGTLVTVSS	
binds	binds			[D72P] (VHH, library clone tested as crude periplasmic extract; also called P01500001[D72P]) VHH: EVQLVESGGGLVQPGGSLRLSCAASGSGFSGMIMGWYRQAPGKQRELVATVTSHGTTNYADSVKGRFTISRPNAKNTVYLQMNSLRPEDTAVYYCNAHFPGIYWGKGTLVTVSS	
binds	binds			[S30I] (VHH, library clone tested as crude periplasmic extract; also called P01500001[S30I]) VHH: EVQLVESGGGLVQPGGSLRLSCAASGSGFIGMIMGWYRQAPGKQRELVATVTSHGTTNYADSVKGRFTISRDNAKNTVYLQMNSLRPEDTAVYYCNAHFPGIYWGKGTLVTVSS	
				P01500007: 2HF042(Q1E, Q5V, A14P, V40A, L79Y, K83R, K105Q, Q108L)-FLAG3-HIS6 (VHH, Entry includes the tags) VHH: EVQLVESGGGLVQPGGSLRLSCAASGSGFSGMIMGWYRQAPGKQRELVATVTSHGTTNYADSVKGRFTISRDNAKNTVYLQMNSLRPEDTAVYYCNAHFPGIYWGQGTLVTVSS	koff [5]: 0.0164 s⁻¹; koff [6]: 0.00292 s⁻¹
		0.000307	2.1e-05	P01500072: P01500001[E1D, G26E, G28P, D72E, N73G]Flag3-His6-GS-NT (VHH, Entry includes tags, linker and NT(8-13)) VHH: DVQLVESGGGLVQPGGSLRLSCAASESPFSGMIMGWYRQAPGKQRELVATVTSHGTTNYADSVKGRFTISREGAKNTVYLQMNSLRPEDTAVYYCNAHFPGIYWGKGTLVTVSS	
		0.00112	0.000164	P01500076: P01500001[E1D, G26E, G28T, S30I, I33L]Flag3-His6-GS-NT (VHH, Entry includes tags, linker and NT(8-13)) VHH: DVQLVESGGGLVQPGGSLRLSCAASESTFIGMLMGWYRQAPGKQRELVATVTSHGTTNYADSVKGRFTISRDNAKNTVYLQMNSLRPEDTAVYYCNAHFPGIYWGKGTLVTVSS	
binds	binds			[V51R] (VHH, library clone tested as crude periplasmic extract; also called P01500001[V51R]) VHH: EVQLVESGGGLVQPGGSLRLSCAASGSGFSGMIMGWYRQAPGKQRELVATRTSHGTTNYADSVKGRFTISRDNAKNTVYLQMNSLRPEDTAVYYCNAHFPGIYWGKGTLVTVSS	
		0.00181	0.000328	P01500074: P01500001[E1D, G26E, I33L]Flag3-His6-GS-NT (VHH, Entry includes tags, linker and NT(8-13)) VHH: DVQLVESGGGLVQPGGSLRLSCAASESGFSGMLMGWYRQAPGKQRELVATVTSHGTTNYADSVKGRFTISRDNAKNTVYLQMNSLRPEDTAVYYCNAHFPGIYWGKGTLVTVSS	
		0.00266	0.000326	P01500071: P01500001[E1D, G26E, I33F]Flag3-His6-GS-NT (VHH, Entry includes tags, linker and NT(8-13)) VHH: DVQLVESGGGLVQPGGSLRLSCAASESGFSGMFMGWYRQAPGKQRELVATVTSHGTTNYADSVKGRFTISRDNAKNTVYLQMNSLRPEDTAVYYCNAHFPGIYWGKGTLVTVSS	
		0.00125	0.000125	P01500075: P01500001[E1D, I33L, N73P]Flag3-His6-GS-NT (VHH, Entry includes tags, linker and NT(8-13)) VHH: DVQLVESGGGLVQPGGSLRLSCAASGSGFSGMLMGWYRQAPGKQRELVATVTSHGTTNYADSVKGRFTISRDPAKNTVYLQMNSLRPEDTAVYYCNAHFPGIYWGKGTLVTVSS	
		0.00151	0.000192	P01500070: P01500001[E1D, I33F, N73P]Flag3-His6-GS-NT (VHH, Entry includes tags, linker and NT(8-13); produced in HEK-F cells) VHH: DVQLVESGGGLVQPGGSLRLSCAASGSGFSGMFMGWYRQAPGKQRELVATVTSHGTTNYADSVKGRFTISRDPAKNTVYLQMNSLRPEDTAVYYCNAHFPGIYWGKGTLVTVSS	
binds	binds			[N73G] (VHH, library clone tested as crude periplasmic extract; also called P01500001[N73G]) VHH: EVQLVESGGGLVQPGGSLRLSCAASGSGFSGMIMGWYRQAPGKQRELVATVTSHGTTNYADSVKGRFTISRDGAKNTVYLQMNSLRPEDTAVYYCNAHFPGIYWGKGTLVTVSS	
		0.00217	0.000335	P01500077: P01500001[E1D, G28T, S30I, N73P]Flag3-His6-GS-NT (VHH, Entry includes tags, linker and NT(8-13)) VHH: DVQLVESGGGLVQPGGSLRLSCAASGSTFIGMIMGWYRQAPGKQRELVATVTSHGTTNYADSVKGRFTISRDPAKNTVYLQMNSLRPEDTAVYYCNAHFPGIYWGKGTLVTVSS	
